“And” between values parts separate entries of the source, which are not always exact repeats. Identical values can stand only once.
Legend:
[1] = biological target: T1, Rat NPY Y5 receptor, Y861 clone (rat, UniProt Q63634 1-445); assay: competition with [125I]PYY, membranes of transiently transfected COS-7 cells
T1 sequence: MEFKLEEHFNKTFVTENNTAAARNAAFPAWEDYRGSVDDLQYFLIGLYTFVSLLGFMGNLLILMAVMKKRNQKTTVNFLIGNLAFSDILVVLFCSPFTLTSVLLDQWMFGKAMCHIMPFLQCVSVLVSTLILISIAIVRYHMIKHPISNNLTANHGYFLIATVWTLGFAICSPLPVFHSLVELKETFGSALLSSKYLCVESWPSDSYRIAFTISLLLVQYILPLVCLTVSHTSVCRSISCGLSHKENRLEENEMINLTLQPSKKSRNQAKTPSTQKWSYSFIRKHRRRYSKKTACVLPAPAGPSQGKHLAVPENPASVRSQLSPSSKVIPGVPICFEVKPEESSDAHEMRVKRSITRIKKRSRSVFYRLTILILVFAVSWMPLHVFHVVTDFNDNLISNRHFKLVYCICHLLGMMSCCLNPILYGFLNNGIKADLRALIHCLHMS

[2] = biological target: Human NPY Y5 receptor (human) (UniProt Q15761); assay: competition with [125I]PYY, membranes of transiently transfected cells, one of the two experiments averaged
[3] = biological target: T2, Rat Y4/PP1 receptor (clone) (rat, UniProt Q63447 1-375); assay: competition with rat [125I]PP, rat Y4/PP1 clone
T2 construct: also called Rat Y4/PP1 (clone)

[4] = biological target: Y5 receptor (clone not specified), transiently expressed in COS-7 cells; assay: saturation binding, membranes of transiently transfected cells, nonlinear regression
[5] = biological target: T1, Rat NPY Y5 receptor, Y861 clone; assay: competition with [125I]PYY, membranes of stably transfected 293S cells
[6] = biological target: Rat NPY Y5 receptor, Y555 clone (rat) (UniProt Q63634); assay: competition with [125I]PYY, membranes of transiently transfected COS-7 cells, average of two experiments
[7] = biological target: T1, Rat NPY Y5 receptor, Y861 clone; assay: competition with [125I]PYY, membranes of transiently transfected COS-7 cells, one of the two experiments averaged
[8] = biological target: Rat NPY Y5 receptor, 6B clone (Y217.24.13.6B) (rat) (UniProt Q63634); assay: as above
[9] = biological target: Rat NPY Y5 receptor, Y555 clone (rat) (UniProt Q63634); assay: as above
[10] = biological target: T1, Rat NPY Y5 receptor, Y861 clone; assay: competition with [125I]PYY, rat Y5 Y861 clone
[11] = biological target: T1, Rat NPY Y5 receptor, Y861 clone; assay: competition with [125I]PYY, membranes of transiently transfected COS-7 cells, average of two experiments
[12] = biological target: T1, Rat NPY Y5 receptor, Y861 clone; assay: cell-based or functional assay
Human NPY Y5 receptor [13] = biological target: T3, Human NPY Y5 receptor (human, UniProt Q15761 1-445); assay: cell-based or functional assay
T3 sequence: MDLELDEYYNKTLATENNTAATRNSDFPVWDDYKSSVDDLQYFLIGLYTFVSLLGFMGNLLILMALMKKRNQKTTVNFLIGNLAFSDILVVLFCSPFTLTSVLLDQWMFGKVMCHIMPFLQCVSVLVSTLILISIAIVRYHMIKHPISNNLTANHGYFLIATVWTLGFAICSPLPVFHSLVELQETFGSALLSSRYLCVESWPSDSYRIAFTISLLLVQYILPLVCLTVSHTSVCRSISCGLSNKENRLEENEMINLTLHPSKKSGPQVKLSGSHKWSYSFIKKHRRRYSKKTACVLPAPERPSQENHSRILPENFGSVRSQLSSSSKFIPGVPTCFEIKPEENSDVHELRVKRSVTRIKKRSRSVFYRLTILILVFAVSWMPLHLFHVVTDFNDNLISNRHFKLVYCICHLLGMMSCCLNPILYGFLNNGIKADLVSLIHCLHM

Human NPY Y5 receptor [14] = biological target: T3, Human NPY Y5 receptor; assay: competition with [125I]PYY, membranes of stably transfected 293 cells
[15] = biological target: T4, Rat NPY Y5 receptor, 6B clone (Y217.24.13.6B) (rat, UniProt Q63634 1-445); assay: competition with [125I]PYY, membranes of transiently transfected COS-7 cells
T4 construct: 445 amino acid protein; assayed as membranes of transiently transfected COS-7 cells; Has proline where Y555/Y589/Y861 have leucine in the first transmembrane domain; also called RAT 6B Clone; Y5 clone
T4 sequence: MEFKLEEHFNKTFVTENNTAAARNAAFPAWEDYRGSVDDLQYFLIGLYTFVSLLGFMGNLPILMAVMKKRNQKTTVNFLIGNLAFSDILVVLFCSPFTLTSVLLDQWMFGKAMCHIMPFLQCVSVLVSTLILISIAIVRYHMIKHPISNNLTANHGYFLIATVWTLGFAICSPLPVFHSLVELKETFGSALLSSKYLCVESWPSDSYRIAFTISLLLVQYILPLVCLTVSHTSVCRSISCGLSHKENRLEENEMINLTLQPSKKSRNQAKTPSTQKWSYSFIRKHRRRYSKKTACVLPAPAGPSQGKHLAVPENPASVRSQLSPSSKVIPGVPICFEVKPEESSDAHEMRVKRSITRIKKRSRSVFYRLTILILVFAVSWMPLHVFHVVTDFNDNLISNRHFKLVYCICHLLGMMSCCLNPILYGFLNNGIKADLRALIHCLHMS
Protocol: The binding assays were performed on GF/C Millipore (Bedford, Mass.) 96-well plates pretreated with 0.02% polyethylenimine (PEI) for at least 2 hours prior to use. The PEI was aspirated from the plates on a vacuum manifold immediately before the samples were added to the wells. All peptides, tissue and radioligand were diluted with binding buffer (25 mM Tris, 120 mM NaCl, 5 mM KCl, 1.2 mM KH₂PO₄, 2.5 mM CaCl₂, 1.2 mM MgSO₄, 0.1% BSA and 0.5 mg/ml bacitracin, pH 7.4).
Each point is the average value of triplicate determinations from a representative experiment. […] Kᵢ values were calculated from the IC₅₀ values using the Cheng-Prusoff correction, such that Kᵢ=IC₅₀/(1±(L/Kd)), where L is the radioligand concentration and Kd is the dissociation constant.

Human NPY Y5 receptor [16] = biological target: T3, Human NPY Y5 receptor; assay: competition with [125I]PYY, membranes of transiently transfected cells, average of two experiments
Human NPY Y5 receptor [17] = biological target: T3, Human NPY Y5 receptor; assay: competition with [125I]PYY, membranes of transiently transfected cells, one of the two experiments averaged

T2 sequence (Q63447 whole entry): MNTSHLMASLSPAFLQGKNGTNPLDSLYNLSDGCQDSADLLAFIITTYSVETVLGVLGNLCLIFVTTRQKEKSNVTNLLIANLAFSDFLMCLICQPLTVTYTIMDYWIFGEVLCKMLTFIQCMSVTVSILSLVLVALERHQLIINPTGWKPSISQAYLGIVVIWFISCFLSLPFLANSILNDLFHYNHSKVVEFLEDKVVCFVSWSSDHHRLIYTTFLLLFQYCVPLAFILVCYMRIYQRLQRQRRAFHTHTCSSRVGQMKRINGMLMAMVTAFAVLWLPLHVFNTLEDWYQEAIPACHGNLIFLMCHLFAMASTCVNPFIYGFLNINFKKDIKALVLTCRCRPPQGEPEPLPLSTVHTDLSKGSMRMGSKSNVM
Sequence of (13-36)PYY (species not stated, Table 2) (peptide) (P10082 41-64): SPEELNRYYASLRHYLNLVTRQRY

Q: What does the source list for “rat (13-36)NPY (as printed in Table 1) (from UniProt P07808 42-65) (peptide)”?
A: Ki [1]: 86 nM; Ki [2]: 89 nM and 65 nM

Q: How did the Ki [1] turn out when “porcine (18-36)NPY (from UniProt P01304 27-45) (peptide)” was run?
A: 206 nM

Q: Which IC50 [3] does the source give for “rat/human (Leu31Pro34)(3-36)NPY (from UniProt P01303 31-64) (peptide)” here?
A: 20 nM

Q: With “[125I]PYY (radioiodinated peptide YY) (ligand)” as the molecule, how does the receptor density (Bmax) (fmol/mg protein) [4] read?
A: 140

Q: How did the Ki [5] turn out when “(13-36)PYY (species not stated, Table 2) (peptide)” was run?
A: 29 nM

Q: “porcine (13-36)NPY (from UniProt P01304 22-45) (peptide)” was tested. Which IC50 [6] did it give?
A: 40 nM

Q: What about the Ki [7] of the same molecule?
A: 25 nM and 19 nM

Q: And the Ki [8]?
A: 7.9 nM and 7.5 nM

Q: And the IC50 [9]?
A: 38 nM and 41 nM

Q: (32D-Trp)NPY (peptide) was tested. Which IC50 [10] did it give?
A: 7 nM

Q: Which Ki [11] does the source give for “porcine (3-36)NPY (from UniProt P01304 12-45) (peptide)” here?
A: 2 nM

Q: What about the Ki [7] of the same molecule?
A: 2.3 nM

Q: With APLEPMYPGDYATHEQRAQYETQLRRYINTLTRPRY (ligand, UniProt P06303 30-65, looked up, mature; also called rPP; rat PP) [rat pancreatic polypeptide] as the molecule, how does the “EC50, forskolin-stimulated adenylate cyclase (cAMP radioimmunoassay), stably transfected 293S cells” value [12] read?
A: 112 nM

Q: And the “EC50, forskolin-stimulated adenylate cyclase (cAMP radioimmunoassay), stably transfected 293 cells” value (Human NPY Y5 receptor [13])?
A: > 1000 nM

Q: And the IC50 [10]?
A: 325 nM

Q: And the IC50 [3]?
A: 0.071 nM

Q: What about the Ki (Human NPY Y5 receptor [14]) of the same molecule?
A: 286 nM

Q: What about the Ki [5] of the same molecule?
A: 203 nM

Q: And the Ki [15]?
A: 62 nM

Q: And the Ki [1]?
A: 296 nM

Q: And the Ki (Human NPY Y5 receptor [16])?
A: 436 nM

Q: And the Ki (Human NPY Y5 receptor [17])?
A: 290 nM and 582 nM

Q: APLEPVYPGDNATPEQMAQYAADLRRYINMLTRPRY (ligand, UniProt P01298 30-65, looked up, mature; also called hPP) [human pancreatic polypeptide] was tested. Which “EC50, forskolin-stimulated adenylate cyclase (cAMP radioimmunoassay), stably transfected 293S cells” value [12] did it give?
A: 1 nM

Q: What about the IC50 [10] of the same molecule?
A: 4.9 nM

Q: What about the IC50 [3] of the same molecule?
A: 0.065 nM

Q: And the Ki [5]?
A: 2.5 nM

Q: And the Ki [1]?
A: 4 nM
